Experiments:
[1] = biological target: Survivin-GB1Borealin f.l. complex (human, UniProt O15392;Q53HL2); test: ITC
[2] = biological target: Survivin, non-tagged (human, UniProt O15392 1-142); test: SEC
Chain of Survivin, non-tagged (O15392 whole entry): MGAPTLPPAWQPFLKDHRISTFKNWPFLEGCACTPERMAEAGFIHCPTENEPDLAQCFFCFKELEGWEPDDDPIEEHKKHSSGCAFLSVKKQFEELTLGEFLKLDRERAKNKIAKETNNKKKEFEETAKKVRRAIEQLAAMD

Chain of Survivin-GB1Borealin f.l. complex (O15392 whole entry, chain 1 of 2): as the sequence (O15392 whole entry) above
Chain of Survivin-GB1Borealin f.l. complex (Q53HL2 whole entry, chain 2 of 2): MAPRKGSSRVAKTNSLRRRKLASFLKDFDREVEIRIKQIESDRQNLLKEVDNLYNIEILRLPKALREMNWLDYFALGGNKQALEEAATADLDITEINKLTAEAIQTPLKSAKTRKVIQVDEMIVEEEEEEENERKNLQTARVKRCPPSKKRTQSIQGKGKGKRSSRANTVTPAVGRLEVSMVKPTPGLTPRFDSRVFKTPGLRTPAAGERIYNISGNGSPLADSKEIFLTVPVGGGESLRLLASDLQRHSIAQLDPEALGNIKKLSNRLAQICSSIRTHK

B1: INCENP 1-69, His6-tagged (domain or fragment)
chain: MGTTAPGPIHLLELCDQKLMEFLCNMDNKDLVWLEEIQEEAERMFTREFSKEPELMPKTPSQKNRRKKR
Kd [1]: 27 nM
stoichiometry N [1]: ~0.75

B2: GB1Borealin 13-92 (domain or fragment)
chain: TNSLRRRKLASFLKDFDREVEIRIKQIESDRQNLLKEVDNLYNIEILRLPKALREMNWLDYFALGGNKQALEEAATADLD
binding result [2]: binds

Source: publication PMC2746994 (Biochemistry, 2009)
